Measured values: patent US20150344570A1 (published 2015)

T1: FcγRIIa R (human, UniProt P12318 34-217)
T1 construct: extracellular domain; Soluble His-tagged extracellular domain expressed in FreeStyle293 cells; analyte in Biacore; also called FcgRIIa R; FcgRIIaR; not shown: His tag attached to the C terminus
T1 sequence (looked up): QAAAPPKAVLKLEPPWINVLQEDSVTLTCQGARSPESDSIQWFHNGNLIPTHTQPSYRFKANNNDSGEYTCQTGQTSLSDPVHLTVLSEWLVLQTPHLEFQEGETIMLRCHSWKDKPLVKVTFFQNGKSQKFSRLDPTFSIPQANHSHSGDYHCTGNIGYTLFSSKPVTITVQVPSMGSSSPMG

T2: FcγRIIb (human, UniProt P31994 43-217)
T2 construct: extracellular domain; Soluble His-tagged extracellular domain expressed in FreeStyle293 cells; analyte in Biacore; also called FcgRIIb; 2b; not shown: His tag attached to the C terminus
T2 sequence (looked up): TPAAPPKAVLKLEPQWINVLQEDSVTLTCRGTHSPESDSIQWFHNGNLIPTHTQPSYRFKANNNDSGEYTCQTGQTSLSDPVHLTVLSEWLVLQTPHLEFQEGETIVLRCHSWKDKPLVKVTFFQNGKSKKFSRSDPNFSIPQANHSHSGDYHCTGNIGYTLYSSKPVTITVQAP


How the values were obtained:
[1] = molecular target: T1, FcγRIIa R; assay: SPR (Biacore), antibody captured via antigen peptide, FcγR as analyte
Procedure: (§1) The heterodimerized antibodies He Abs in which one of the H chains was introduced with an alteration were assayed for their binding activities to each activating FcγR and inhibitory FcγR according to the method described in Example 4. […] The activating FcγRs in FIGS. 26, 27, 28, and 29 are FcγRIa, FcγRIIa (R), FcγRIIa (H), and FcγRIIIa, respectively.
(§2) Analysis of interaction between objective antibody and the FcγR was carried out using Biacore T100 (GE Healthcare). HBS-EP+ (GE Healthcare) was used as the running buffer, and the measurement temperature was set to 25° C. Chips produced by immobilizing the antigen peptide by the amine coupling method to a Series S Sencor Chip CM5 (GE Healthcare), or alternatively, chips produced by allowing preliminarily biotinylated antigen peptides to interact with and immobilize onto a Series S Sensor Chip SA (certified) (GE Healthcare) were used. Antibodies of interest were captured onto an antigen peptide-immobilized chip, and allowed to interact to each FcγR diluted with running buffer. To regenerate and repeatedly use the chip, the antibodies captured on the chip were washed off by reacting 10 mM glycine-HCl, pH 1.5.

[2] = molecular target: T2, FcγRIIb; assay: as above
Procedure: as §1, §2

[3] = molecular target: T1, FcγRIIa R; assay: ratio of He/Con_2aR to He/Con_2b (binding to FcγRIIb as reference); SPR

He/Con_2aR (IIaR binding relative to GpH7-A5/GpH7-B3/GpL16-k0) [1]	He/Con_2b (IIb binding relative to GpH7-A5/GpH7-B3/GpL16-k0) [2]	He_2aR/2b (IIaR/IIb) [3]	Binder
49.6 % of control (control = 100)	34.6 % of control (control = 100)	1.44	GpH7-A5/GpH7-B3 variant P329_07I/GpL16-k0 (antibody, human IgG1, kappa, Heterodimerized anti-glypican-3 IgG1 antibody; alteration only in the GpH7-B3 H chain; position in EU numbering; also called He Ab) heavy 1: not shown heavy 2: not shown light: DIVMTQSPLSLPVTPGEPASISCQASESLVHSNRNTYLHWYLQKPGQSPQLLIYKVSNRFSGVPDRFSGSGSGTDFTLKISRVEAEDVGVYYCSQNTHVPPTFGQGTKVEIERTVAAPSVFIFPPSDEQLKSGTASVVCLLNNFYPREAKVQWKVDNALQSGNSQESVTEQDSKDSTYSLSSTLTLSKADYEKHKVYACEVTHQGLSSPVTKSFNRGEC
58.9 % of control (control = 100)	40.5 % of control (control = 100)	1.45	GpH7-A5/GpH7-B3 variant P329_02A/GpL16-k0 (antibody, human IgG1, kappa, Heterodimerized anti-glypican-3 IgG1 antibody; alteration only in the GpH7-B3 H chain; position in EU numbering; also called He Ab) heavy 1: not shown heavy 2: not shown light: DIVMTQSPLSLPVTPGEPASISCQASESLVHSNRNTYLHWYLQKPGQSPQLLIYKVSNRFSGVPDRFSGSGSGTDFTLKISRVEAEDVGVYYCSQNTHVPPTFGQGTKVEIERTVAAPSVFIFPPSDEQLKSGTASVVCLLNNFYPREAKVQWKVDNALQSGNSQESVTEQDSKDSTYSLSSTLTLSKADYEKHKVYACEVTHQGLSSPVTKSFNRGEC
53.8 % of control (control = 100)	38.5 % of control (control = 100)	1.4	GpH7-A5/GpH7-B3 variant P329_03V/GpL16-k0 (antibody, human IgG1, kappa, Heterodimerized anti-glypican-3 IgG1 antibody; alteration only in the GpH7-B3 H chain; position in EU numbering; also called He Ab) heavy 1: not shown heavy 2: not shown light: DIVMTQSPLSLPVTPGEPASISCQASESLVHSNRNTYLHWYLQKPGQSPQLLIYKVSNRFSGVPDRFSGSGSGTDFTLKISRVEAEDVGVYYCSQNTHVPPTFGQGTKVEIERTVAAPSVFIFPPSDEQLKSGTASVVCLLNNFYPREAKVQWKVDNALQSGNSQESVTEQDSKDSTYSLSSTLTLSKADYEKHKVYACEVTHQGLSSPVTKSFNRGEC
42.8 % of control (control = 100)	29.1 % of control (control = 100)	1.47	GpH7-A5/GpH7-B3 variant P329_08L/GpL16-k0 (antibody, human IgG1, kappa, Heterodimerized anti-glypican-3 IgG1 antibody; alteration only in the GpH7-B3 H chain; position in EU numbering; also called He Ab) heavy 1: not shown heavy 2: not shown light: DIVMTQSPLSLPVTPGEPASISCQASESLVHSNRNTYLHWYLQKPGQSPQLLIYKVSNRFSGVPDRFSGSGSGTDFTLKISRVEAEDVGVYYCSQNTHVPPTFGQGTKVEIERTVAAPSVFIFPPSDEQLKSGTASVVCLLNNFYPREAKVQWKVDNALQSGNSQESVTEQDSKDSTYSLSSTLTLSKADYEKHKVYACEVTHQGLSSPVTKSFNRGEC

The next lines start with the binder.

Binder	He/Con_2aR (IIaR binding relative to GpH7-A5/GpH7-B3/GpL16-k0) [1]	He/Con_2b (IIb binding relative to GpH7-A5/GpH7-B3/GpL16-k0) [2]	He_2aR/2b (IIaR/IIb) [3]
GpH7-A5/GpH7-B3 variant N325_19Q/GpL16-k0 (antibody, human IgG1, kappa, Heterodimerized anti-glypican-3 IgG1 antibody; alteration only in the GpH7-B3 H chain; position in EU numbering; also called He Ab) heavy 1: not shown heavy 2: not shown light: DIVMTQSPLSLPVTPGEPASISCQASESLVHSNRNTYLHWYLQKPGQSPQLLIYKVSNRFSGVPDRFSGSGSGTDFTLKISRVEAEDVGVYYCSQNTHVPPTFGQGTKVEIERTVAAPSVFIFPPSDEQLKSGTASVVCLLNNFYPREAKVQWKVDNALQSGNSQESVTEQDSKDSTYSLSSTLTLSKADYEKHKVYACEVTHQGLSSPVTKSFNRGEC	92.1 % of control (control = 100)	69.1 % of control (control = 100)	1.33
GpH7-A5/GpH7-B3 variant P329_14T/GpL16-k0 (antibody, human IgG1, kappa, Heterodimerized anti-glypican-3 IgG1 antibody; alteration only in the GpH7-B3 H chain; position in EU numbering; also called He Ab) heavy 1: not shown heavy 2: not shown light: DIVMTQSPLSLPVTPGEPASISCQASESLVHSNRNTYLHWYLQKPGQSPQLLIYKVSNRFSGVPDRFSGSGSGTDFTLKISRVEAEDVGVYYCSQNTHVPPTFGQGTKVEIERTVAAPSVFIFPPSDEQLKSGTASVVCLLNNFYPREAKVQWKVDNALQSGNSQESVTEQDSKDSTYSLSSTLTLSKADYEKHKVYACEVTHQGLSSPVTKSFNRGEC	57.3 % of control (control = 100)	37.9 % of control (control = 100)	1.51
GpH7-A5/GpH7-B3 variant P329_11K/GpL16-k0 (antibody, human IgG1, kappa, Heterodimerized anti-glypican-3 IgG1 antibody; alteration only in the GpH7-B3 H chain; position in EU numbering; also called He Ab) heavy 1: not shown heavy 2: not shown light: DIVMTQSPLSLPVTPGEPASISCQASESLVHSNRNTYLHWYLQKPGQSPQLLIYKVSNRFSGVPDRFSGSGSGTDFTLKISRVEAEDVGVYYCSQNTHVPPTFGQGTKVEIERTVAAPSVFIFPPSDEQLKSGTASVVCLLNNFYPREAKVQWKVDNALQSGNSQESVTEQDSKDSTYSLSSTLTLSKADYEKHKVYACEVTHQGLSSPVTKSFNRGEC	30.2 % of control (control = 100)	16.9 % of control (control = 100)	1.79
GpH7-A5/GpH7-B3 variant P329_12R/GpL16-k0 (antibody, human IgG1, kappa, Heterodimerized anti-glypican-3 IgG1 antibody; alteration only in the GpH7-B3 H chain; position in EU numbering; also called He Ab) heavy 1: not shown heavy 2: not shown light: DIVMTQSPLSLPVTPGEPASISCQASESLVHSNRNTYLHWYLQKPGQSPQLLIYKVSNRFSGVPDRFSGSGSGTDFTLKISRVEAEDVGVYYCSQNTHVPPTFGQGTKVEIERTVAAPSVFIFPPSDEQLKSGTASVVCLLNNFYPREAKVQWKVDNALQSGNSQESVTEQDSKDSTYSLSSTLTLSKADYEKHKVYACEVTHQGLSSPVTKSFNRGEC	29.3 % of control (control = 100)	17.6 % of control (control = 100)	1.66
